Results from patent US20240141048A1 (published 2024).
Residue numbers refer to the chain shown, from its start. Read-outs that look alike come from different tables or passages of the source. Blank lines part the entries; values can stand above or below the binder they belong to.

Tests used:
Assay in all cases: BLI
[1] = molecular target: T1, His-tagged cynomolgus VISTA extracellular domain protein (in house) (cynomolgus, UniProt A0A7N9IB00 33-194)
T1 chain: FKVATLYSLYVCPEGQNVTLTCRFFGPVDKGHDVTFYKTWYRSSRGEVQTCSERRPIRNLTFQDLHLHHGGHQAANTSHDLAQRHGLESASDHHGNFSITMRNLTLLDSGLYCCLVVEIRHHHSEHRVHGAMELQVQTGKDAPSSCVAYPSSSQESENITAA

[2] = molecular target: T2, His-tagged human VISTA extracellular domain protein (in house) (UniProt Q9H7M9 33-194)
[3] = molecular target: T1, His-tagged cynomolgus VISTA …
[4] = molecular target: T2, His-tagged human VISTA extracellular …; remark: listed apart in the source
[5] = molecular target: T1, His-tagged cynomolgus VISTA …
[6] = molecular target: T2, His-tagged human VISTA extracellular …; remark: listed apart in the source
[7] = molecular target: T1, His-tagged cynomolgus VISTA …
[8] = molecular target: T2, His-tagged human VISTA extracellular …; remark: listed apart in the source
[9] = molecular target: T1, His-tagged cynomolgus VISTA …
[10] = molecular target: T2, His-tagged human VISTA extracellular …; remark: listed apart in the source

T2 sequence (Q9H7M9 33-194): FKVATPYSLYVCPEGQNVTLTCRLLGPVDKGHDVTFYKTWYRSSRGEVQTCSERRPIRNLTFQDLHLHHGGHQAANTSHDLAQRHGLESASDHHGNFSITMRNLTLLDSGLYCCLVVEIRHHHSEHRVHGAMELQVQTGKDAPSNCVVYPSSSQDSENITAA

B2: anti-VISTA antibody 16A1 (antibody, V domains shown)
VH: QVQLQQSGAELMKPGASVKISCKATGYTFSSSWIEWVKQRPGHGLEWIGEIFPGSGSLNFNEKFKGKATFTADTSSNTAYLQLSSLTSDDSAVYYCARRPPGWFFDVWGAGTTVTVSS
VL: DIVMTQSHKFMSTSVGDRVSITCKASQDVTTDVAWYQQKPGQSPKLLIYSASYRYTGVPDRFTGSGSGTDFTFTISSVQAEDLTVYYCQQHYSSPWTFGGGTKLEIK
- Kd [3]: 2.57 nM
- Kd [4]: 0.00278 nM

B4: anti-VISTA antibody 15D11 (antibody, V domains shown)
VH: EVQLQQSGSELVKAGASVKLSCTASGFKIKDTFIHWVKQRPEQGLDWIGRIDPANGNSKYDPKFQGKATITADTSSNTAYLQLSSLTSEDTAVYYCARWPSNWEAMDYWGQGTSVTVSS
VL: QIVLTQSPAIMSASPGEKVTMTCSASSSVSYMYWYQQKPGSSPRLLIYDTSNLASGVPFRFSGSGSGTSYSLTISRMEAEDAATYYCQQWISYPLTFGTGTKLELK
- Kd [7]: 0.00583 nM
- Kd [8]: 12.5 nM

B5: anti-VISTA antibody 17E9 (antibody, V domains shown)
VH: QVQLQQSGAELMKPGASVKISCTATGYTFSSCWIEWVKQRPGHGLEWLGEILPGSDYTNYNEKFKDKATFTADTSSDTAYMQLSSLTSEDSAVYYCARRPPGWYFDVWGAGTAVTVSS
VL: B2 VL with T30S, V33I, Y55F, T84A, Q90H, H91Q, S94T, E105D
- Kd [9]: 3.35 nM
- Kd [10]: 0.00421 nM

The remaining lines, values ahead:

- Kd [1]: 6.53 nM
- Kd [2]: 0.011 nM
B1: anti-VISTA antibody 20E4 (antibody, V domains shown)
VH: B2 VH with I34V, K38R, L58T, N59H, F60Y
VL: B2 VL with T30S, T84A, S94T

- Kd [5]: 7.37 nM
- Kd [6]: 2.45 nM
B3: anti-VISTA antibody 9F9 (antibody, V domains shown)
VH: QVQFQQSGAELARPGASVKLSCKASGYTFTGYWMQWVKQRPGQGLEWIGAIYPGDGDTRYSQKFKGKVTLTADKSSSTAYMQLSSLASEDSAVYYCARRDYGAWFAYWGQGTLVTVSA
VL: DIKVTQSPSSMYASLGERVTITCKASQDINSYLSWFQQKPGKSPKTLIYRANRLVDGVPSRFSGSGSGQDYSLTISSLDYEDMGIYYCLQYDEFPYTFGGGTKLEIK
